Reference: patent US20110035817A1 (YEDA RESEARCH AND DEVELOPMENT, published 2011)

Molecular target: T1, myc-NIK (wild-type NIK fused N-terminally to a six myc tag) (UniProt Q99558 1-947)
T1 construct: pCS3MTNIK expression vector, co-transfected into HEK-293T cells; also called NF-κB-inducing kinase; MAP3K14; not shown: six myc tag at the N-terminus
Assay: co-immunoprecipitation from HEK-293T lysate: NIK immunoprecipitated with anti-NIK antibody, co-precipitated SIVA detected by Western blot
Protocol: FLAG-SIVA2 or FLAG-SIVA3 expression vectors were co-transfected with NIK expression vector into HEK-293T cells. 24 h later, cells were lysed, NIK was immunoprecipitated with anti-NIK antibody and co-precipitated SIVA was monitored by western Blotting. WB=Western Blot, TLC=Total cell lysate, IP=immunoprecipitation.
Next, it was explored whether SIVA3 binds NIK. FLAG-SIVA2 (8 μg) or FLAG-SIVA3 (8 μg) were co-transfected with myc-NIK (7 μg) into HEK-293T cells (1.5×10⁶ seeded in 90 mm plate, transfected using calcium phosphate method). 24 h later, cells were lysed, NIK was immunoprecipitated with anti-NIK antibody and co-precipitated SIVA was detected by western Blotting.

T1 sequence (Q99558 whole entry, the tested form may be a part): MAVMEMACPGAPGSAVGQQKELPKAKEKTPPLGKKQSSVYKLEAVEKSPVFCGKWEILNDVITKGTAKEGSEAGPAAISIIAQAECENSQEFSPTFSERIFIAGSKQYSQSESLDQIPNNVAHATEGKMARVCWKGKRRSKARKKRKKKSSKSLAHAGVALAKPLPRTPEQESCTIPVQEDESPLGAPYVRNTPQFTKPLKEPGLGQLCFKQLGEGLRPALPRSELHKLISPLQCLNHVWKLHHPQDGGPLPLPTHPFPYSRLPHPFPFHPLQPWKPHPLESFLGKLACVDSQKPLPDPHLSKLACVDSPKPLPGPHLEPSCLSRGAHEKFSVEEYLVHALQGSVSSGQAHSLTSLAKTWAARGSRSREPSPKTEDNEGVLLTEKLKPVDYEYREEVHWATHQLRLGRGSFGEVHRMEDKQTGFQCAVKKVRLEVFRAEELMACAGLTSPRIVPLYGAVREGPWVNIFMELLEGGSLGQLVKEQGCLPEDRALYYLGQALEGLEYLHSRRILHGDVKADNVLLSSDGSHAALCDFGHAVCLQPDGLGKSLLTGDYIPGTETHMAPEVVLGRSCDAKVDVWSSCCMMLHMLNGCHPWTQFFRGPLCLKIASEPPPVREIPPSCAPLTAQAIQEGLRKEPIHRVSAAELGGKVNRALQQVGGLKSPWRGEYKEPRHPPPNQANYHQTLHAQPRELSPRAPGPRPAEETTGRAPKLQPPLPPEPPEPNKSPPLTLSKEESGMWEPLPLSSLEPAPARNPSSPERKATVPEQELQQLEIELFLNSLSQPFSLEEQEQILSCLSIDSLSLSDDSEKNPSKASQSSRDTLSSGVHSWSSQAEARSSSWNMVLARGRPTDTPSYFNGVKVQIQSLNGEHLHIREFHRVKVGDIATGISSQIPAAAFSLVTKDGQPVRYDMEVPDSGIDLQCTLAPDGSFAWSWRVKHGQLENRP

- binding result: no binding
B1: FLAG-SIVA3 (other)
chain: MPKRSCPFADVAPLQLKVRVSQRELSRGVCAERYSQEVFAAVTCTRKCCAPAVPCSRPEAGSSRLPSPGATPCMAAFPGRALGVHTELWGRREGCLLHVLFCILMTE
notes: Expressed from pcDNA3 in HEK-293T cells and tested in lysate by co-immunoprecipitation; not shown: FLAG tag
